# How the values were obtained:
# [1] = target: human FcγRIIIa 158Phe, biotinylated (UniProt P08637); assay: SPR; settings: read off a plot
# [2] = target: human FcγRIIIa 158Val, biotinylated; assay: SPR; settings: read off a plot
# [3] = target: human FcγRIIIa 158Phe, biotinylated (UniProt P08637); assay: cSPR (cellular SPR, opsonized RBCs); settings: receptor density of 30 nM and opsonization concentration of 0.625 μg/ml; parent: est. 250; read off a plot
# [4] = target: human FcγRIIa 131His, biotinylated (UniProt P12318); assay: cSPR (cellular SPR, opsonized RBCs); settings: receptor density of 30 nM and opsonization concentration of 2.5 μg/ml; parent: est. 310; read off a plot
# [5] = target: human FcγRIIIa 158Val, biotinylated; assay: cSPR (cellular SPR, opsonized RBCs); settings: receptor density of 10 nM and opsonization concentration of 1.25 μg/ml; parent: est. 200; read off a plot
# anti-kappa nanobody = assay: cSPR (cellular SPR, opsonized RBCs); settings: density of 1 nM and opsonization concentration of 0.625 μg/ml; parent: est. 610; read off a plot
# [6] = target: human FcγRIIa 131Arg, biotinylated; assay: cSPR (cellular SPR, opsonized RBCs); settings: receptor density of 30 nM and opsonization concentration of 0.625 μg/ml; parent: est. 210; read off a plot
# [7] = target: human FcγRIIIa 158Phe, biotinylated (UniProt P08637); assay: SPR; IBIS MX96; biotinylated human FcγR spotted on a SensEye G-Streptavidin sensor at 1, 3, 10 and 30 nM; 2-fold dilution series of IgG (0.49 to 1000 nM) flowed over; Kd by equilibrium fitting, interpolated to Rmax 500
# [8] = target: human FcγRIIIa 158Val, biotinylated (human); assay: as above
# Sequence of human FcγRIIIa 158Phe, biotinylated (P08637 17-208): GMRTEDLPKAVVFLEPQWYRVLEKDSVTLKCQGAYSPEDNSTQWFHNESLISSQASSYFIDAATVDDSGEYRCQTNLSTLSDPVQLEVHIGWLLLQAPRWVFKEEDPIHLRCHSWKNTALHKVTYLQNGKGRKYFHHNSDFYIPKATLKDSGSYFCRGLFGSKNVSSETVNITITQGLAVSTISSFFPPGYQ
# Sequence of human FcγRIIa 131His, biotinylated (P12318 34-217): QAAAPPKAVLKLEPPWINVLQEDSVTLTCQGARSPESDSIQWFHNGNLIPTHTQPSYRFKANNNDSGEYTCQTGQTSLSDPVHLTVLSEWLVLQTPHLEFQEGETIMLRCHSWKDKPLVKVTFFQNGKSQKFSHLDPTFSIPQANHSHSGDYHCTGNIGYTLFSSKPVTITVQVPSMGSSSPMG
substance,measurement,setting,value
anti-RhD IgG1 allotype IGHG1*03 R292W,Kd,[1]; parent: est. 1.5e-6,4400 nM
same,Kd,[2]; parent: est. 2.7e-7,470 nM
anti-RhD IgG3 allotype IGHG3*01 R292W,Kd,[1]; parent: est. 8.1e-7,1900 nM
same,Kd,[2]; parent: est. 1.7e-7,340 nM
anti-RhD IgG3 allotype IGHG3*12 F296Y; P291L,other: avidity (AUC),[3],50
same,other: avidity (AUC),[4],45
same,other: avidity (AUC),[5],55
same,other: avidity (AUC),anti-kappa nanobody,640
same,other: avidity (AUC),[6],11
same,Kd,[2]; parent: est. 2.5e-7,210 nM
anti-RhD IgG3 allotype IGHG3*17 R292A,Kd,[1]; parent: est. 9.2e-7,860 nM
same,Kd,[2]; parent: est. 2.1e-7,220 nM
anti-RhD IgG3 allotype IGHG3*17 R292E,Kd,[1]; parent: est. 9.2e-7,2700 nM
same,Kd,[2]; parent: est. 2.1e-7,580 nM
anti-RhD IgG3 allotype IGHG3*17 R292H,Kd,[1]; parent: est. 9.2e-7,810 nM
same,Kd,[2]; parent: est. 2.1e-7,200 nM
anti-RhD IgG3 allotype IGHG3*17 R292L,Kd,[1]; parent: est. 9.2e-7,860 nM
same,Kd,[2]; parent: est. 2.1e-7,210 nM
anti-RhD IgG3 allotype IGHG3*17 R292W,Kd,[1]; parent: est. 9.2e-7,2800 nM
same,Kd,[2]; parent: est. 2.1e-7,540 nM
anti-RhD IgG3 allotype IGHG3*18 (antibody),fold reduction of affinity against other IgG3 allotypes,[7],3 fold
same,fold reduction of affinity against other IgG3 allotypes,[8],3 fold
anti-RhD IgG3 allotype IGHG3*18 W292R,Kd,[1]; parent: est. 2.6e-6,880 nM
same,Kd,[2]; parent: est. 5.4e-7,210 nM
anti-RhD IgG3 allotype IGHG3*19 (antibody),fold reduction of affinity against other IgG3 allotypes,[7],3 fold
same,fold reduction of affinity against other IgG3 allotypes,[8],3 fold

# — paper PMC7218058
